Results published in paper PMC5096715.

Legend:
[1] = biological target: complement component C3b, serum-derived (human) (UniProt P01024)
C3d C3d (Homo sapiens) = C3d C3d (Homo sapiens) (UniProt P01024); experiment: biolayer interferometry; settings: cited from earlier work
[2] = biological target: complement component C3b, serum-derived (human) (UniProt P01024); remark: listed apart in the source

Chain of C3d C3d (Homo sapiens) (P01024 1002-1303): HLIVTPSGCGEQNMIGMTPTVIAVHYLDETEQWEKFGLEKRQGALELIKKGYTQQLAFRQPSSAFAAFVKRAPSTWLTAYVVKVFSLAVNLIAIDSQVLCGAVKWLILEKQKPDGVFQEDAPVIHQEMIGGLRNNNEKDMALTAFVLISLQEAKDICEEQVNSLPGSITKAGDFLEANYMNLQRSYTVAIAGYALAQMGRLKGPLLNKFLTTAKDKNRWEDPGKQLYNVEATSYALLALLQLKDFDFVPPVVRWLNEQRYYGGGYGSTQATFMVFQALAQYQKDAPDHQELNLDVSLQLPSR
Chain of CFHR3 (Q02985 19-330): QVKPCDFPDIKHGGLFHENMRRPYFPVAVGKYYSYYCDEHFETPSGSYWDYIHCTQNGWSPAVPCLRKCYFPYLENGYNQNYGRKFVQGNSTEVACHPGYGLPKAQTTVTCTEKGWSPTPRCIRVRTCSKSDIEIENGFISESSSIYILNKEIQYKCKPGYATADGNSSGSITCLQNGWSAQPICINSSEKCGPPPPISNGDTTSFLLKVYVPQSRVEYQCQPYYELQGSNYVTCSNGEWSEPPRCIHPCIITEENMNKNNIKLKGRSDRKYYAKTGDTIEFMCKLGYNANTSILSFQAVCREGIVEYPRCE
Chain of complement factor H-related protein 1 (CFHR1), recombinant wild-type (Q03591 19-330): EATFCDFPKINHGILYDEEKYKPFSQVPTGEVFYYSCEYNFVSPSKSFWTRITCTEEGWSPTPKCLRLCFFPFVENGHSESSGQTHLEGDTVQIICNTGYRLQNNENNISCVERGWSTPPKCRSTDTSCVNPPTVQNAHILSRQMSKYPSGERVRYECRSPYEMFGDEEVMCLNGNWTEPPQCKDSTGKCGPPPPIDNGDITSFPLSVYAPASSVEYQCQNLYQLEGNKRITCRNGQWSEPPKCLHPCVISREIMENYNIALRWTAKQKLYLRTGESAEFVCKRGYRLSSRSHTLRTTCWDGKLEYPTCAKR
Chain of CFHR1 (Q03591 19-330): as above
Chain of complement factor H (CFH), recombinant (P08603 19-1231): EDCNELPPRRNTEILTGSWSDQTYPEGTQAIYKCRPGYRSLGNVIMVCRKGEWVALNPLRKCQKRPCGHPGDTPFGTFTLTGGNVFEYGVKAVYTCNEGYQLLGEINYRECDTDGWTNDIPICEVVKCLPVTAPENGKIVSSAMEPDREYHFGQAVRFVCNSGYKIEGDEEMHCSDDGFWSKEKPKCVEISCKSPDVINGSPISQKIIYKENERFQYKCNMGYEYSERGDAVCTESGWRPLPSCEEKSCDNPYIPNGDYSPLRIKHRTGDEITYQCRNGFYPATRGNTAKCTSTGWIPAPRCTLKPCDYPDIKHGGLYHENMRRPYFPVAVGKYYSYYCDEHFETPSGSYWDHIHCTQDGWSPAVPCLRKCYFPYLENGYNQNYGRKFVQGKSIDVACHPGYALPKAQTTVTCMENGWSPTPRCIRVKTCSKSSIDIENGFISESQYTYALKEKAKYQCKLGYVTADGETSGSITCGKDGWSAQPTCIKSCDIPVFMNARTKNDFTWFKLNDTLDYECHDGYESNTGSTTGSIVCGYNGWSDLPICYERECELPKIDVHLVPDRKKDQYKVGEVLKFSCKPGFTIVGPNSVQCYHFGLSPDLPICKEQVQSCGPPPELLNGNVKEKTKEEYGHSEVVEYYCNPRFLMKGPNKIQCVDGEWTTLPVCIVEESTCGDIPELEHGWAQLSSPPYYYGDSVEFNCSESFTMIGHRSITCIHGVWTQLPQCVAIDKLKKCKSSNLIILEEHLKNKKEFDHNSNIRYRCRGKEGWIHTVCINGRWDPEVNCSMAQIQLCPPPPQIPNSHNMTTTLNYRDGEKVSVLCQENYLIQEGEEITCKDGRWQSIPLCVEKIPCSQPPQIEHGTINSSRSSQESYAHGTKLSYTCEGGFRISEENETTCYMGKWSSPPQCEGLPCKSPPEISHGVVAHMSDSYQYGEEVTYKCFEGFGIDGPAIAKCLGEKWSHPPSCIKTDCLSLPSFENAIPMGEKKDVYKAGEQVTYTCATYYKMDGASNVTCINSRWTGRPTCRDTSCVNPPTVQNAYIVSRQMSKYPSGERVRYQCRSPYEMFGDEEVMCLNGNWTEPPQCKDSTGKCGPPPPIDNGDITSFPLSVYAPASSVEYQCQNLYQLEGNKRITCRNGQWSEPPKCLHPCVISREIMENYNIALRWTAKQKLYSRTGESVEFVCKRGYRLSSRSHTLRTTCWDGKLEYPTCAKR

In the case of “complement factor H-related protein 1 (CFHR1), recombinant wild-type (from UniProt Q03591 19-330) (natural protein)”, the alternative pathway hemolysis of guinea pig erythrocytes in 10% NHS with 140 nM CFH plus 2 μM wild-type CFHR1 (competition with CFH for C3b; ~8% with CFH alone) [1] is reported as 23%.

“CFHR1 Mut2 (Q238A/Y241A) (from UniProt Q03591 19-330) (natural protein)” showed an alternative pathway hemolysis of guinea pig erythrocytes in 10% NHS with 140 nM CFH plus 2 μM CFHR1 Mut2 (competition with CFH for C3b; ~8% with CFH alone) [1] of 6%.

In the case of CFHR1 (from UniProt Q03591), the Kd (C3d C3d (Homo sapiens)) is listed as 1.2 µM.

For CFHR3 (from UniProt Q02985), the Kd (C3d C3d (Homo sapiens)) is listed as 1.1 µM.

With “CFHR1 Mut1 (N216A/D218A) (from UniProt Q03591 19-330) (natural protein)” the alternative pathway hemolysis of guinea pig erythrocytes in 10% NHS with 140 nM CFH plus 2 μM CFHR1 Mut1 (competition with CFH for C3b; ~8% with CFH alone) [1] was 8%.

For “CFHR1 Mut3 (Y52S/S54Y/Y57E) (from UniProt Q03591 19-330) (natural protein)”, the alternative pathway hemolysis of guinea pig erythrocytes in 10% NHS with 140 nM CFH plus 2 μM CFHR1 Mut3 (competition with CFH for C3b; ~8% with CFH alone) [2] was 12%.

Work on “complement factor H (CFH), recombinant (from UniProt P08603-1 19-1231) (natural protein)” yielded an alternative pathway hemolysis of guinea pig erythrocytes in 10% NHS with 140 nM CFH added (~58% without added CFH) [1] of 8%.
